Experimental data: the supplement of paper PMC9112550, “Optimization of the antimicrobial peptide Bac7 by deep mutational scanning” (BMC Biology, 2022)

What follows are sequences tested on Escherichia coli TOP10 (assay: shrunken log2 fold change of peptide-encoding DNA abundance (4.5 h post-induction vs induction); higher = less antimicrobial activity (less host growth inhibition)). Details: time post-induction: 4.5 h; library: site-saturation at positions 5, 18, 19, 20.
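Note: peptides expressed intracellularly from a pBAD plasmid library in pooled LB shake-flask culture, induced with 0.3% L-arabinose, DNA abundance read by NGS, three biological replicates, DESeq2 with apeglm shrinkage.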

Sequence | shrunken log2 fold change
RRIRTRPPRLPRPRPRPTRFPRP | 0.463
RRIRWRPPRLPRPRPRPLGQPRP | 0.0349
RRIRVRPPRLPRPRPRPYSPPRP | -0.181
RRIRHRPPRLPRPRPRPRKDPRP | -0.0956
RRIRGRPPRLPRPRPRPMWWPRP | 0.184
RRIRRRPPRLPRPRPRPMGFPRP | 0.317
RRIRQRPPRLPRPRPRPMLDPRP | -0.206
RRIRDRPPRLPRPRPRPCRVPRP | 0.0479
RRIRSRPPRLPRPRPRPADHPRP | -0.166
RRIRGRPPRLPRPRPRPNLIPRP | -0.0614
RRIRHRPPRLPRPRPRPELSPRP | 0.252
RRIRMRPPRLPRPRPRPYWEPRP | -0.0124
RRIRRRPPRLPRPRPRPLPYPRP | -0.0149
RRIRVRPPRLPRPRPRPVDVPRP | -0.106
RRIRHRPPRLPRPRPRPRAEPRP | 0.12
RRIRNRPPRLPRPRPRPCATPRP | -0.0524
RRIRRRPPRLPRPRPRPSTWPRP | 0.00308
RRIRKRPPRLPRPRPRPAGVPRP | 0.685
RRIRVRPPRLPRPRPRPAPQPRP | 0.618
RRIRFRPPRLPRPRPRPLYPPRP | -0.205
RRIRVRPPRLPRPRPRPKRQPRP | 0.0464
RRIRWRPPRLPRPRPRPVWQPRP | 0.301
RRIRCRPPRLPRPRPRPKACPRP | 0.0182
RRIRTRPPRLPRPRPRPPSMPRP | 0.13
RRIRWRPPRLPRPRPRPLTWPRP | 0.302

Sequence | shrunken log2 fold change
RRIRLRPPRLPRPRPRPVHFPRP | -0.272
RRIRWRPPRLPRPRPRPRTLPRP | 0.565
RRIRMRPPRLPRPRPRPCTLPRP | -0.192
RRIRNRPPRLPRPRPRPELGPRP | 0.193
RRIRGRPPRLPRPRPRPQQFPRP | 0.239
RRIRWRPPRLPRPRPRPAYIPRP | -0.0757
RRIRQRPPRLPRPRPRPWGCPRP | -0.122
RRIRKRPPRLPRPRPRPEMQPRP | 1.92
RRIRGRPPRLPRPRPRPVGEPRP | 1.23
RRIRWRPPRLPRPRPRPVVNPRP | 0.261
RRIRSRPPRLPRPRPRPVSPPRP | 0.155
RRIRTRPPRLPRPRPRPPIDPRP | -0.231
RRIRSRPPRLPRPRPRPWMQPRP | -0.0251
RRIRKRPPRLPRPRPRPTRYPRP | 0.438
RRIRERPPRLPRPRPRPIMQPRP | -0.164
RRIRPRPPRLPRPRPRPPVKPRP | 0.172
RRIRWRPPRLPRPRPRPLWIPRP | -0.115
RRIRPRPPRLPRPRPRPFSAPRP | 0.0672
RRIRSRPPRLPRPRPRPMFSPRP | -0.49
RRIRSRPPRLPRPRPRPFYLPRP | -0.818
RRIRDRPPRLPRPRPRPNYAPRP | -0.457
RRIRFRPPRLPRPRPRPRVHPRP | -0.0984
RRIRERPPRLPRPRPRPFQAPRP | -0.215
RRIRWRPPRLPRPRPRPVWYPRP | -0.18
RRIRRRPPRLPRPRPRPALGPRP | 0.269

Sequence | shrunken log2 fold change
RRIRMRPPRLPRPRPRPGTFPRP | -0.0326
RRIRTRPPRLPRPRPRPMRGPRP | -0.0594
RRIRIRPPRLPRPRPRPGGQPRP | 0.112
RRIRTRPPRLPRPRPRPQKPPRP | -0.0591
RRIRYRPPRLPRPRPRPKLDPRP | -0.351
RRIRARPPRLPRPRPRPIFNPRP | 0.0119
RRIRERPPRLPRPRPRPLIIPRP | -1
RRIRRRPPRLPRPRPRPNLLPRP | -0.00833
RRIRTRPPRLPRPRPRPFEPPRP | -0.231
RRIRVRPPRLPRPRPRPKNGPRP | -0.129
RRIRWRPPRLPRPRPRPHRTPRP | -0.168
RRIRHRPPRLPRPRPRPKSFPRP | -0.0233
RRIRGRPPRLPRPRPRPKAEPRP | 1.35
RRIRTRPPRLPRPRPRPKCSPRP | -0.0669
RRIRYRPPRLPRPRPRPHGSPRP | -0.00822
RRIRARPPRLPRPRPRPHHVPRP | -0.0499
RRIRKRPPRLPRPRPRPFGPPRP | 0.325
RRIRLRPPRLPRPRPRPQGEPRP | 0.125
RRIRTRPPRLPRPRPRPPHEPRP | 0.373
RRIRNRPPRLPRPRPRPPRSPRP | 0.446
RRIRDRPPRLPRPRPRPCGMPRP | 0.0207
RRIRDRPPRLPRPRPRPPLQPRP | 0.414
RRIRVRPPRLPRPRPRPCMGPRP | -0.234
RRIRHRPPRLPRPRPRPVHYPRP | -0.495
RRIRWRPPRLPRPRPRPPNAPRP | 0.675
